Assay results as given in US20250388673A1 (HIFIBIO, published 2025).

T1: human BTLA (human, UniProt Q7Z6A9 31-289)
T1 construct: also called hBTLA; HEK293.hBTLA
T1 sequence: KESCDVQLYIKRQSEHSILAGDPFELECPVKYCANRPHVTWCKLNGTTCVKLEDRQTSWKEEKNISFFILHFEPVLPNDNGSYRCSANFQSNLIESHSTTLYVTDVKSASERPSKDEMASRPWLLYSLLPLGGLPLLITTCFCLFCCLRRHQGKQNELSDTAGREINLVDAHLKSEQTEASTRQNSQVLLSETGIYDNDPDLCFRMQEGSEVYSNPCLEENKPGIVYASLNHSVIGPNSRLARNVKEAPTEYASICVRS

B1: HFB6-5-hG1 (human-mouse chimeric monoclonal antibody) (antibody, human IgG1, kappa, V domains shown)
VH: EVQLQQSGAELVKPGASVKLSCTASGVNIKDTYMYWVKQRPEQGLEWIGRIDPANGYTRYDPKFQGKATITADTSSNTAHLQLSSLTSEDAAVYYCAVYDGYYESFDVWGAGTTVTVSS
VL: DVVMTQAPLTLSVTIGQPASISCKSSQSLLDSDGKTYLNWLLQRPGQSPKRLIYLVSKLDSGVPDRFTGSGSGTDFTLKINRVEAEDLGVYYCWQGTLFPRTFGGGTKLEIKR
notes: also called HFB-5; HFB6-5 parental antibody
B2: HFB6-5hz22-hG1 (antibody, human IgG1, V domains shown)
VH: EVQLVESGGGLVQPGGSLKLSCAASGVNIKDTYMYWVRQASGKGLEWIGRIDPANGYTRYAASFKGRATISADDSKNTAYLQLNSLKTEDTAVYYCAVYDGYYESFDVWGQGTLVTVSS
VL: DIVMTQSPDSLAVSLGERATINCKSSQSLLDSDGKTYLNWLQQKPGQSPKRLIYLVSKLDSGVPDRFSGSGSGTDFTLTISSVQAEDLAVYYCWQGTLFPRTFGQGTKLEIK
notes: Humanized variant of HFB6-5, human IgG1 (hG1)
B3: HFB6-5hz23-hG1 (antibody, human IgG1, V domains shown)
VH: QVQLQESGPGLVKPSGTLSLTCAASGVNIKDTYMYWVRQPPGKGLEWIGRIDPANGYTRYNPSFKSRATISADKSKNQASLKLSSVTAADTAVYYCAVYDGYYESFDVWGQGTLVTVSS
VL: DIVMTQSPDSLAVSLGERATINCKSSQSLLDSDGKTYLNWLQQKPGQSPKRLIYLVSKLDSGVPDRFSGSGSGTDFTLTISSVQAEDLAVYYCWQGTLFPRTFGQGTKLEIK
notes: as for B2
B4: HFB6-5hz24-hG1 (antibody, human IgG1, V domains shown)
VH: EVQLVQSGAEVKKPGESLKISCKGSGVNIKDTYMYWVRQMPGKGLEWIGRIDPANGYTRYSPSFQGQVTISADKSISTAYLQLSSLKASDTAMYYCAVYDGYYESFDVWGQGTLVTVSS
VL: DIVMTQSPDSLAVSLGERATINCKSSQSLLDSDGKTYLNWLQQKPGQSPKRLIYLVSKLDSGVPDRFSGSGSGTDFTLTISSVQAEDLAVYYCWQGTLFPRTFGQGTKLEIK
notes: as for B2
B5: HFB6-4hz3-hG1 (antibody, human IgG1, V domains shown)
VH: EVQLVESGGGLVQPGRSLRLSCTTSGFNIKDTYIHWFRQAPGKGLEWVGRNDPANGNTKYTASFKGRATISADGSKSIAYLQMNSLKTEDTAVYYCASYEGYYERFGYWGQGTLVTVSS
VL: DIQMTQSPSSLSASVGDRVTITCRSSQSLLDRDGKSYLNWLQQKPGKAPKRLIYLVSKLDSGVPSRFSGSGSGTDFTLTISSLQPEDFATYYCWQDTHFPYTFGQGTKLEIK
notes: Humanized variant of HFB6-4, human IgG1 (hG1)
B6: HFB6-4hz9-hG1 (antibody, human IgG1, V domains shown)
VH: EVQLVESGGGLVQPGRSLRLSCTTSGFNIKDTYIHWFRQAPGKGLEWVGRNDPANGNTKYTASFKGRATISADGSKSIAYLQMNSLKTEDTAVYYCASYEGYYERFGYWGQGTLVTVSS
VL: DVVMTQSPLSLPVTLGQPASISCRSSQSLLDRDGKTYLNWLQQRPGQSPRRLIYLVSKRDSGVPDRFSGSGSGTDFTLKISRVEAEDVGVYYCWQDTHFPYTFGQGTKLEIK
notes: as for B5
B7: HFB6-4hz6-hG1 (antibody, human IgG1, V domains shown)
VH: EVQLVQSGAEVKKPGESLKISCKTSGFNIKDTYIHWVRQMPGKGLEWIGRNDPANGNTKYSPSFQGQVTISADKSISTAYLQLSSLKASDTAMYYCASYEGYYERFGYWGQGTLVTVSS
VL: DIQMTQSPSSLSASVGDRVTITCRSSQSLLDRDGKSYLNWLQQKPGKAPKRLIYLVSKLDSGVPSRFSGSGSGTDFTLTISSLQPEDFATYYCWQDTHFPYTFGQGTKLEIK
notes: as for B5
B8: HFB6-4hz15-hG1 (antibody, human IgG1, V domains shown)
VH: EVQLVESGGGLVQPGRSLRLSCTTSGFNIKDTYIHWFRQAPGKGLEWVGRNDPANGNTKYTASFKGRATISADGSKSIAYLQMNSLKTEDTAVYYCASYEGYYERFGYWGQGTLVTVSS
VL: EIVLTQSPGTLSLSPGERATLSCRSSQSLLDRDGKTYLNWLQQKPGQAPRRLIYLVSKLDSGIPDRFSGSGSGTDFTLTISRLEPEDFAVYYCWQDTHFPYTFGQGTKLEIK
notes: as for B5
B9: HFB6-4hz5-hG1 (antibody, human IgG1, V domains shown)
VH: QVQLQESGPGLVKPSGTLSLTCAVSGFNIKDTYIHWVRQPPGKGLEWIGRNDPANGNTKYNPSFKSRATISADKSKNQASLKLSSVTAADTAVYYCASYEGYYERFGYWGQGTLVTVSS
VL: DIQMTQSPSSLSASVGDRVTITCRSSQSLLDRDGKSYLNWLQQKPGKAPKRLIYLVSKLDSGVPSRFSGSGSGTDFTLTISSLQPEDFATYYCWQDTHFPYTFGQGTKLEIK
notes: as for B5
B10: HFB6-4hz16-hG1 (antibody, human IgG1, V domains shown)
VH: EVQLVESGGGLVQPGGSLKLSCATSGFNIKDTYIHWVRQASGKGLEWIGRNDPANGNTKYAASFKGRATISADDSKNTAYLQLNSLKTEDTAVYYCASYEGYYERFGYWGQGTLVTVSS
VL: EIVLTQSPGTLSLSPGERATLSCRSSQSLLDRDGKTYLNWLQQKPGQAPRRLIYLVSKLDSGIPDRFSGSGSGTDFTLTISRLEPEDFAVYYCWQDTHFPYTFGQGTKLEIK
notes: as for B5
B11: HFB6-4hz10-hG1 (antibody, human IgG1, V domains shown)
VH: EVQLVESGGGLVQPGGSLKLSCATSGFNIKDTYIHWVRQASGKGLEWIGRNDPANGNTKYAASFKGRATISADDSKNTAYLQLNSLKTEDTAVYYCASYEGYYERFGYWGQGTLVTVSS
VL: DVVMTQSPLSLPVTLGQPASISCRSSQSLLDRDGKTYLNWLQQRPGQSPRRLIYLVSKRDSGVPDRFSGSGSGTDFTLKISRVEAEDVGVYYCWQDTHFPYTFGQGTKLEIK
notes: as for B5
B12: HFB6-4hz4-hG1 (antibody, human IgG1, V domains shown)
VH: EVQLVESGGGLVQPGGSLKLSCATSGFNIKDTYIHWVRQASGKGLEWIGRNDPANGNTKYAASFKGRATISADDSKNTAYLQLNSLKTEDTAVYYCASYEGYYERFGYWGQGTLVTVSS
VL: DIQMTQSPSSLSASVGDRVTITCRSSQSLLDRDGKSYLNWLQQKPGKAPKRLIYLVSKLDSGVPSRFSGSGSGTDFTLTISSLQPEDFATYYCWQDTHFPYTFGQGTKLEIK
notes: as for B5
B13: HFB6-4hz7-hG1 (antibody, human IgG1, V domains shown)
VH: QVQLVQSGAEVKKPGSSVKVSCKTSGFNIKDTYIHWVRQAPGQGLEWIGRNDPANGNTKYAQKFQGRATITADESTSTAYMELSSLRSEDTAVYYCASYEGYYERFGYWGQGTLVTVSS
VL: DVVMTQSPLSLPVTLGQPASISCRSSQSLLDRDGKTYLNWLQQRPGQSPRRLIYLVSKRDSGVPDRFSGSGSGTDFTLKISRVEAEDVGVYYCWQDTHFPYTFGQGTKLEIK
notes: as for B5
B14: HFB6-4hz13-hG1 (antibody, human IgG1, V domains shown)
VH: QVQLVQSGAEVKKPGSSVKVSCKTSGFNIKDTYIHWVRQAPGQGLEWIGRNDPANGNTKYAQKFQGRATITADESTSTAYMELSSLRSEDTAVYYCASYEGYYERFGYWGQGTLVTVSS
VL: EIVLTQSPGTLSLSPGERATLSCRSSQSLLDRDGKTYLNWLQQKPGQAPRRLIYLVSKLDSGIPDRFSGSGSGTDFTLTISRLEPEDFAVYYCWQDTHFPYTFGQGTKLEIK
notes: as for B5
B15: HFB6-4hz12-hG1 (antibody, human IgG1, V domains shown)
VH: EVQLVQSGAEVKKPGESLKISCKTSGFNIKDTYIHWVRQMPGKGLEWIGRNDPANGNTKYSPSFQGQVTISADKSISTAYLQLSSLKASDTAMYYCASYEGYYERFGYWGQGTLVTVSS
VL: DVVMTQSPLSLPVTLGQPASISCRSSQSLLDRDGKTYLNWLQQRPGQSPRRLIYLVSKRDSGVPDRFSGSGSGTDFTLKISRVEAEDVGVYYCWQDTHFPYTFGQGTKLEIK
notes: as for B5
B16: HFB6-4hz11-hG1 (antibody, human IgG1, V domains shown)
VH: QVQLQESGPGLVKPSGTLSLTCAVSGFNIKDTYIHWVRQPPGKGLEWIGRNDPANGNTKYNPSFKSRATISADKSKNQASLKLSSVTAADTAVYYCASYEGYYERFGYWGQGTLVTVSS
VL: DVVMTQSPLSLPVTLGQPASISCRSSQSLLDRDGKTYLNWLQQRPGQSPRRLIYLVSKRDSGVPDRFSGSGSGTDFTLKISRVEAEDVGVYYCWQDTHFPYTFGQGTKLEIK
notes: as for B5
B17: HFB6-4hz8-hG1 (antibody, human IgG1, V domains shown)
VH: QVQLVQSGAEVKKPGASVKVSCKTSGFNIKDTYIHWVRQAPGQGLEWIGRNDPANGNTKYAQKFQGRVTMTADTSTSTVYMELSSLRSEDTAVYYCASYEGYYERFGYWGQGTLVTVSS
VL: DVVMTQSPLSLPVTLGQPASISCRSSQSLLDRDGKTYLNWLQQRPGQSPRRLIYLVSKRDSGVPDRFSGSGSGTDFTLKISRVEAEDVGVYYCWQDTHFPYTFGQGTKLEIK
notes: as for B5
B18: HFB6-4hz14-hG1 (antibody, human IgG1, V domains shown)
VH: QVQLVQSGAEVKKPGASVKVSCKTSGFNIKDTYIHWVRQAPGQGLEWIGRNDPANGNTKYAQKFQGRVTMTADTSTSTVYMELSSLRSEDTAVYYCASYEGYYERFGYWGQGTLVTVSS
VL: EIVLTQSPGTLSLSPGERATLSCRSSQSLLDRDGKTYLNWLQQKPGQAPRRLIYLVSKLDSGIPDRFSGSGSGTDFTLTISRLEPEDFAVYYCWQDTHFPYTFGQGTKLEIK
notes: as for B5
B19: HFB6-4hz17-hG1 (antibody, human IgG1, V domains shown)
VH: QVQLQESGPGLVKPSGTLSLTCAVSGFNIKDTYIHWVRQPPGKGLEWIGRNDPANGNTKYNPSFKSRATISADKSKNQASLKLSSVTAADTAVYYCASYEGYYERFGYWGQGTLVTVSS
VL: EIVLTQSPGTLSLSPGERATLSCRSSQSLLDRDGKTYLNWLQQKPGQAPRRLIYLVSKLDSGIPDRFSGSGSGTDFTLTISRLEPEDFAVYYCWQDTHFPYTFGQGTKLEIK
notes: as for B5
B20: HFB6-4hz18-hG1 (antibody, human IgG1, V domains shown)
VH: EVQLVQSGAEVKKPGESLKISCKTSGFNIKDTYIHWVRQMPGKGLEWIGRNDPANGNTKYSPSFQGQVTISADKSISTAYLQLSSLKASDTAMYYCASYEGYYERFGYWGQGTLVTVSS
VL: EIVLTQSPGTLSLSPGERATLSCRSSQSLLDRDGKTYLNWLQQKPGQAPRRLIYLVSKLDSGIPDRFSGSGSGTDFTLTISRLEPEDFAVYYCWQDTHFPYTFGQGTKLEIK
notes: as for B5

Target: T1, human BTLA
Test: flow cytometry, HEK293 cells overexpressing human BTLA
Procedure: HEK293 cells overexpressing human BTLA and Expi293 cells overexpressing cynomolus BTLA were incubated with different concentrations of humanized anti-BTLA antibodies. Anti-BTLA antibody binding to target cells were quantified with an AF647-conjugated anti-human IgG Fc secondary antibody by flow cytometry.

Binding result, binds:
B1, B2, B3, B4, B5, B6, B7, B8, B9, B10, B11, B12, B13, B14, B15, B16, B17, B18, B19, B20
